Earlier results on three substances are cited in publication PMC3978290.

pKd: −log10 of the molar value. Where “and” joins values, the source holds several entries; their conditions need not be identical. Equal values may be shown once.

The target of one data set is C3b C3b (Homo sapiens) (UniProt P01024). The data set can be described thus: SPR. Background: SPR reads the build-up and loss of mass on a sensor chip optically.
For data set [1], the target named is C-reactive protein (Homo sapiens) (UniProt P02741). The data set can be described thus: SPR.
Sequence of C-reactive protein (Homo sapiens) (P02741 19-223): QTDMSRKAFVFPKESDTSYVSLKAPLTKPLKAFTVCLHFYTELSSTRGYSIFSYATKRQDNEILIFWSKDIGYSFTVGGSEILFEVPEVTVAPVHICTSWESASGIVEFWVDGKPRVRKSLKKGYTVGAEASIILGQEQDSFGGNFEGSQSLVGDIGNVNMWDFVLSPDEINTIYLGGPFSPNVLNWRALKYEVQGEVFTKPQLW
The target of the next data set is C3u C3u (Homo sapiens) (UniProt P01024). The data set can be described thus: sedimentation velocity.
Sequence of C3u C3u (Homo sapiens) (P01024 23-667, chain 1 of 2): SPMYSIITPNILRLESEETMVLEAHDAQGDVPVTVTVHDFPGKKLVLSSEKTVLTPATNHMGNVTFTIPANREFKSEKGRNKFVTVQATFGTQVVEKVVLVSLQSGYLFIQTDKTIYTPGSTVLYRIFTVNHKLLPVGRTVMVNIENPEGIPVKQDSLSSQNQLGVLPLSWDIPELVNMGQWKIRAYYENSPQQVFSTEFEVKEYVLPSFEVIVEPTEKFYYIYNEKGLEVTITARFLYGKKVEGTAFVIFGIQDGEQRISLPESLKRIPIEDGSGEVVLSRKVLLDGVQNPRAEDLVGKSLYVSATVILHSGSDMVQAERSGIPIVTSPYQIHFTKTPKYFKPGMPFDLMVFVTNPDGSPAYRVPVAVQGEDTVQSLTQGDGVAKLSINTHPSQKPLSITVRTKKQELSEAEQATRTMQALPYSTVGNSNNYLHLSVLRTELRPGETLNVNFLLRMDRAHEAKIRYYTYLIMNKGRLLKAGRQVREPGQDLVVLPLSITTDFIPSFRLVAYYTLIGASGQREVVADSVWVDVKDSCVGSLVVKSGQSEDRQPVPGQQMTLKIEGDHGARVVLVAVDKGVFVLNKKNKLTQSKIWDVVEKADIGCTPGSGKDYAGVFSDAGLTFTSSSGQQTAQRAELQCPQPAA
Sequence of C3u C3u (Homo sapiens) (P01024 672-1663, chain 2 of 2): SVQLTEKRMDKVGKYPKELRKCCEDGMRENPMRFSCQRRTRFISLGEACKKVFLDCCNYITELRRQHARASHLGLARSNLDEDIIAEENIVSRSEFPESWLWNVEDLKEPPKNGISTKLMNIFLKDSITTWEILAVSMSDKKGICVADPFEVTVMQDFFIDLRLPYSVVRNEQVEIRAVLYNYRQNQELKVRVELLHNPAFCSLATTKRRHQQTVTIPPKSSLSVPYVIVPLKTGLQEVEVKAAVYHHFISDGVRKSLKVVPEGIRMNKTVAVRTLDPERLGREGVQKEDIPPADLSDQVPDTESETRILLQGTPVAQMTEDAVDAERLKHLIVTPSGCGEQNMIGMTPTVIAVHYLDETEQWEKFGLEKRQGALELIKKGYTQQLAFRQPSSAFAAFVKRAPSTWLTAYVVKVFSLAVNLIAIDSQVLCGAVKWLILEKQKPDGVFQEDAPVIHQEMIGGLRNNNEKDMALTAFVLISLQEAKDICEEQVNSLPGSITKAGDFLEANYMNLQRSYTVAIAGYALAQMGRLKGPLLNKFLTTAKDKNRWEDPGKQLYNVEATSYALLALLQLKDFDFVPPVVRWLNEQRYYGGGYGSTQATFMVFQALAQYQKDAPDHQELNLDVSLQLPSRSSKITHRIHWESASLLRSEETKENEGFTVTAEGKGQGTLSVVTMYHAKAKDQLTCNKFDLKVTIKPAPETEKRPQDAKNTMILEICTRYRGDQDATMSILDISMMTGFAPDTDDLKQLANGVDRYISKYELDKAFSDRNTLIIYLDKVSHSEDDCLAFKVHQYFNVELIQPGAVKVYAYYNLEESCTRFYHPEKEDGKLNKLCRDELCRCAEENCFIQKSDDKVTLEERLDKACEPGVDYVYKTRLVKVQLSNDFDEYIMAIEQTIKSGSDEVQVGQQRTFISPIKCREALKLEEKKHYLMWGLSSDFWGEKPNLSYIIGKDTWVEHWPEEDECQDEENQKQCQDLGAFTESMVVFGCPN
Data set [2] addresses Complement factor H (Homo sapiens) (UniProt P08603). Nature of the data set: sedimentation equilibrium.

Sequence of Complement factor H (P08603 19-1231): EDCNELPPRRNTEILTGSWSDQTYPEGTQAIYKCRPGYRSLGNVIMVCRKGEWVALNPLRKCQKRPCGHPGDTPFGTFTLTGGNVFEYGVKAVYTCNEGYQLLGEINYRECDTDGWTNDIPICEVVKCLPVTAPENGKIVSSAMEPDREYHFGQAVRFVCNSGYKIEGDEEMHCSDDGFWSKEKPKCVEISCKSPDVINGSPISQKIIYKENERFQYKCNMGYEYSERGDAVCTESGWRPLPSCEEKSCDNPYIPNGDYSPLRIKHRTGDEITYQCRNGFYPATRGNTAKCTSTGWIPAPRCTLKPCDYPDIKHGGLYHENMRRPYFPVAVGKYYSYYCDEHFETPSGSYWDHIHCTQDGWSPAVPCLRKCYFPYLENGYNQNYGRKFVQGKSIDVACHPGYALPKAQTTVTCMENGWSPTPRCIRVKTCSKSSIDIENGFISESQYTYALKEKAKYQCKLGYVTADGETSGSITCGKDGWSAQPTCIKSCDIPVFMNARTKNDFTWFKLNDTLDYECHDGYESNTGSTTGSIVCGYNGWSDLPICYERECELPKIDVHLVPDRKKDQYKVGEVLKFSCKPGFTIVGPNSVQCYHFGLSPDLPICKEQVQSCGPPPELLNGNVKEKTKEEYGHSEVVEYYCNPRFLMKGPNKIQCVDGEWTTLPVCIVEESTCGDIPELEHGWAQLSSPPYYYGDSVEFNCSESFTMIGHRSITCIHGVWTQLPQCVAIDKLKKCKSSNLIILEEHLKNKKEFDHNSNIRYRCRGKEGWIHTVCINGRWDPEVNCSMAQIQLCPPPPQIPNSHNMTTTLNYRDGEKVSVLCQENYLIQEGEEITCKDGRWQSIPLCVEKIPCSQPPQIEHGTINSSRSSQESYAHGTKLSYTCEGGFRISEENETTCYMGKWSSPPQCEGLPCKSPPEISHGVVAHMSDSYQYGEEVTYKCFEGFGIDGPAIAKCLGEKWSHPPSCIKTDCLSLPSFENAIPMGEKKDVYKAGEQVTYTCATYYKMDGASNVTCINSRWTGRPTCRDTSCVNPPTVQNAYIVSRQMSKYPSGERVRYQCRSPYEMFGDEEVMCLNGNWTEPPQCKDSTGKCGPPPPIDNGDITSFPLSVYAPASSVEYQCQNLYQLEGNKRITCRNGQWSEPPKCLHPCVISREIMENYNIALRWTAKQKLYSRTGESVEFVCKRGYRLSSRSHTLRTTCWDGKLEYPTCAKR
Sequence of C3b C3b (Homo sapiens) (P01024 566-670): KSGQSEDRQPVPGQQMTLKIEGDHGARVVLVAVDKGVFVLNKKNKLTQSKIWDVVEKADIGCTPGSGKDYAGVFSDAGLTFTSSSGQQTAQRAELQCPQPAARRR
Sequence of Complement factor H SCR-1/4 SCR-1/4 (P08603 19-264): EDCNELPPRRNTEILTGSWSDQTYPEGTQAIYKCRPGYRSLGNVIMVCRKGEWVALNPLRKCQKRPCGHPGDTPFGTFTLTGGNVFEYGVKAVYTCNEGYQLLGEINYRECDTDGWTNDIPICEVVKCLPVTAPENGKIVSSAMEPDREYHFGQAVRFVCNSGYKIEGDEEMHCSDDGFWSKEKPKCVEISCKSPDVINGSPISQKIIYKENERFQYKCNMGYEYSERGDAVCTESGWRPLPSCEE
Sequence of Complement factor H SCR-19/20 (P08603 1107-1231): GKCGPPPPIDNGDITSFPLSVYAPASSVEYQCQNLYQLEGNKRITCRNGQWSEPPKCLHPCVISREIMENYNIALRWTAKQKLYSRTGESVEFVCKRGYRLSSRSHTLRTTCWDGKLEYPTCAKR

Broadly, the pKd is the negative decadic logarithm of the Kd, by convention in mol/L. For “Complement factor H (from UniProt P08603)”, the pKd with C3b C3b (Homo sapiens) was 5.96; in data set [1] it was 5.38; in the data set with C3u C3u (Homo sapiens) it was 6.23; in data set [2], 4.55.
On to “Complement factor H SCR-1/4 SCR-1/4 (from UniProt P08603)”, for which the pKd with C3b C3b (Homo sapiens) is 4.93 and 4.96.
Take “Complement factor H SCR-19/20 (from UniProt P08603)”: in the data set with C3b C3b (Homo sapiens), the pKd is 5.27 and 6.27.
